# Measured values: the domain aggregation screens of Martell et al. (2025)
# Assay: soluble fraction after stress (log2 fold change); higher = more stays soluble; pooled small domains, quantitative proteomics
# Conditions: stress: 50 degC
# In short: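 Pooled custom libraries of small protein domains were each held under stress at 50°C. The read-out, high-throughput quantitative proteomics, tracked how much of each protein stayed soluble. This is reported as a base-two log fold change used to indicate aggregation propensity. Higher values mean more protein remains in solution.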
row,Sequence,soluble fraction (log2)
1,HMREEFIGVLDGKVAIFHGRPERKGPLKEVTAIEVDKLPRQEQADLEKGLVIRTDKEKLQLMEGLAALLD,0.289
2,HMDKMVAVPNVRGIEASEAEATLIAQGLFVEVEKSDSEDANVAYGEVYAQTPKAGNRVEEGTTITIKVRTE,0.0555
3,HMNKTEIISILEKIVLPTQIRNINIFGSEVIIDLNIDNPSLHAKKKLEKSIINSFDKNHKIIINFNVE,-0.232
4,HMATYTPYDKQGAKLWRVTAYLGMDSVTGKQRNMKKGGFKTKKEAQLYYNQVKLDFENGTLDQ,-1.22
5,HMGSFGAMLKRNRKLAGLTQEQLAEKLDVSTVAVQNWESGKNQIRSEKLTKLSYLFNIPLETLIHEMLIS,-0.951
6,HMGGLAEIILNAIEIEGGFLPITDKSAPELIQSRLGMSKKAFKEAVGTLYKNRDIAIEPNGLRKI,0.0577
7,HMTNELVNVNKLLDVMEPSIPLTALEIMTRLGIKSKETLRNSYLNPAIKLGMINLTSPLKPTSKNQMYYK,-0.307
8,HMEDIVDLVVEPEAAGRRLDAWLASRIERLSRSRIKALIESGHVAIGGATIVEAKKPVNSGDVVQLSVPEG,0.0215
9,HMIDAHTALLAKRLEAKGMLPLTDKSSAEEIYAEFGISKKAFKKALGALYKERLVRIGEDGVVWI,-1.27
10,HMKVWYAGINAQRVGPMTLGAMEQQIRYGRVLFSTLIWKSPMPQWVPAGDVPELRRLLDEHMLNQMP,-0.381
11,HMLPDDDMLLNILTKLLIDKQFVINSHEIFDFIIKRANRSYEEMFILVNKLDQLSLEKKRQLTIPLIKEI,-0.652
12,HMGHKTLTVELQEKIENLPQTLDKYNLTLGNNKMSVDYTYSVKEKQTGITNLLQDLKEHKFDIVYLVGQDN,0.251
13,HMERGEFQKLGRATLEQTLARAGKTLAEVSLKAMLETFAFAAEEDLYEALGRGRVSAAKVGETLFPALKGR,-0.0985
14,HMDGVEVVTKPAGAQIEFAGKSYGPSPVHIPGLVAGSQLILRLPGFQAATVRLRTAPDKSKALEYTLQPA,-0.0828
15,HMLPRLVLSPGTEVLATVMGKYENGMSLVKISSHLFAMDLPSRVQVGDSLRMTFLHQDARPTFALA,-0.779
16,HMDPDAIVSKGQLGALNNAIGRFIAQGGSQTVVDKGIAKRNPNAKKPADLTNSQAESLEAAILKILNG,0.515
17,HMDTGPSFATRRQEAFNALTQIAASNKEFMNVAGDVLWKVADFPEAQILAQRWRRIIPPNVLGEA,-0.193
18,HMVPLSMLTEGQIFRGQVLDITSQGIKIQLNPEQILFARLGEQVELNIGQQMAFQVRENKGDQLIIHPMQN,0.0382
19,HMKEPQLGPVRKWSDQTGNFGIEAQFVKREGDNILLKRADQRTISIPLEKLSDADQEHLKQEEQKQAME,-0.138

row,Sequence,soluble fraction (log2)
1,HMKISELAKKVIASGRVTQWAKHPHIYFVNGMRKVAIELDVNGVFSISMRYYPYDPADRELVENLIRGD,-2.53
2,HMNQTGQYENAAKRFNQLITIDSSDKRAYLQLGISNYNLGNKEKADSLFNIIRNSKDKLLIEELDNFLT,0.0481
3,HMGRQTITLPDFSGQDLEQVKARLTEWGLVPEEKSVFSDSVPLGSVVRTVPAEGDEVSVGDTVTVYKSLGR,0.0656
4,HMDIYKKFIIPATYFGSRLDHVLSELLPELSRSKIQNMIKQNLVMINGNHAAQKQKVVGDEEIIIKDI,-0.0556
5,HMQISDTSELEAVVQDILKANMDVVAKIKAGKTNSANFLMGQVMKLTKGRAKPDTVLQLILDAVKQ,-0.301
6,HMTQEFIVPKVTGYTVEDAMNLSGVKDVFEITVDSTEKSDQPAGIILFQDPKDGSSRKSDLVIHVVVSAGS,-0.137
7,HMFAERLKELRKMRRFSQHALAERLGISQQAVGKWETGKSTPDPATLREIADIFEVSVDLLLGR,-0.247
8,HMNKVQTFIIEKHIKEVFEHTNRTYYRSGQYYFQTRDEFSMALKRFLKDREPNKKNWIDSIINRA,-0.298
9,HMSDEEAISKLPGVGPAILEKLKEAGYNDIMTIAVDSPKNLAELAEIGEPTAAKIIAAAKKAAD,0.0933
10,HMATTTEPTSPPAATASLEAKINWLFLIFRNKKTVTASEQKFHAEDASTVVGKETLTDDGTTMTKGETAAG,0.0862
11,HMQISDTASIQEIAKEIIKSNPKAVEDYKKGKENALQFLVGQLMTKTKGTVHPGAARTILGDILK,0.0851
12,HMKQFVVQYYGIDGEVINSVYKNGMSDLTSYEPEKIDGKNFKGWSLSEDSKKVIDENYRINSDVNLYAVYT,0.0253
13,HMHKYEYESLNHVNVGSNLKYISTHFGQPKLIKKSKYHENLNFAYYLEKKFILTLILEGDRVNAYTITG,0.0565
14,HMDKEIKILKEKRLDDVQQAIRELSPQKRRVVEMKLYHNSTNQEVADKLAISVNTVKSLYTSALHDLRRIL,-0.139
15,HMWNTADDIKEAIWKLIQSEDPKKPYSDLKISQLLLEKEMKISRRTVAKYRKEMGILGTYSRK,-0.347
16,HMPGLSQAEAQSLLIAYLAQQGRTLELIPLGQSGDVWRFSGRESDGTVVSFFMVSRTDGTISEVPVPP,-0.62
17,HMPPDIKVVGVTVASDPRASFAMLSSNGKTLSYRVNDLIEGTEYHLIKVEAAAITIATAGGQSTQIAF,-0.585
18,HMPEMHIYTKEGKIHITHIDENEEIKIYNPLGQIIYTGSPQDIPVLEGKGLYIIYIGKSAVEVLES,-1.65
